Measurements published in publication PMC11699195.

Experiment: immunoblot, H460, A549, HCC827 cells
Conditions: glycan gained; control: mock vector

PD-L1: RPN1-HA overexpression
expression_or_secretion: increases
